# From doi:10.1101/2021.11.05.467508v1
# Substrate: NC(=O)c1ccc[n+]([C@@H]2O[C@H](COP(=O)(O)OP(=O)(O)OC[C@H]3O[C@@H](n4cnc5c(N)ncnc54)[C@H](O)[C@@H]3O)[C@@H](O)[C@H]2O)c1
# Assay: dot blot saturation kinetics, Michaelis-Menten fit
# Assay type: biochemical, Oryza sativa
# Details: H3K9Ac of histone H3 (constant), 0-600 μM NAD+, pH 7.5, 37 °C
Protein,Km,kcat
OsSRT1_cc (CC) (Oryza sativa Indica Group) (protein) KHLVVFTGAGISTSSGIPDFRGPKGVWTLQRSGKGVPGASLPFHRAVPTLTHMALVELEKTGRLKFVISQNVDSLHLRSGLPREKLAELHGNSFKEICPSCKKEYLRDFEIETIGLKDTPRRCSDKNCGARLKDTVLDWEDALPPEEMDAAKEQCQTADLVLCLGTSLQITPACNMPLLSLKNGGRVAIVNLQATPKDKKASLVIHGLVDK,256 ± 21 µM,0.03432 ± 0.00127 s⁻¹
ΔN1 (Oryza sativa Indica Group) (protein) KHLVVFTGAGISTSSGIPDFRGPKGVWTLQRSGKGVPGASLPFHRAVPTLTHMALVELEKTGRLKFVISQNVDSLHLRSGLPREKLAELHGNSFKEICPSCKKEYLRDFEIETIGLKDTPRRCSDKNCGARLKDTVLDWEDALPPEEMDAAKEQCQTADLVLCLGTSLQITPACNMPLLSLKNGGRVAIVNLQATPKDKKASLVIHGLVDKVIAGVMYMMNLRIPPYIRTDFVQISLRNSVKKKCVRWTLRVTSIHGLRAPLPFLRSVEVSFPERPDMKPVVLKEQPFSLQRETSMNRPFVMLLTFNFSDGCGCSSSSIEWPVDFLKQKDSFVRDRSLVLQELQHAAEHRSRAGQHAILEREGVPRAETSIHALVTNIVRYDTEDSKAAVPMATWMNSNGSLSKRHMDAIGCNPASSKKQKLVATRHRRKGLNPATQKV,175 ± 27 µM,0.0617 ± 0.00367 s⁻¹
ΔC1 (Oryza sativa Indica Group) (protein) MSLGYAEKLSYREDVGNVGMPEIFDSPELLHKKIEELAVMVRESKHLVVFTGAGISTSSGIPDFRGPKGVWTLQRSGKGVPGASLPFHRAVPTLTHMALVELEKTGRLKFVISQNVDSLHLRSGLPREKLAELHGNSFKEICPSCKKEYLRDFEIETIGLKDTPRRCSDKNCGARLKDTVLDWEDALPPEEMDAAKEQCQTADLVLCLGTSLQITPACNMPLLSLKNGGRVAIVNLQATPKDKKASLVIHGLVDK,299 ± 43 µM,0.02 ± 0.0014 s⁻¹
